In IntAct's records for PubMed 24997597:

B1: Centrosomal protein of 152 kDa (Homo sapiens), O94986-3 (parent)
chain: MSLDFGSVALPVQNEDEEYDEEDYEREKELQQLLTDLPHDMLDDDLSSPELQYSDCSEDGTDGQPHHPEQLEMSWNEQMLPKSQSVNGYNEIQSLYAGEKCGNVWEENRSKTEDRHPVYHPEEGGDEGGSGYSPPSKCEQTDLYHLPENFRPYTNGQKQEFNNQATNVIKFSDPQWNHFQGPSCQGLEPYNKVTYKPYQSSAQNNGSPAQEITGSDTFEGLQQQFLGANENSAENMQIIQLQVLNKAKERQLENLIEKLNESERQIRYLNHQLVIIKDEKDGLTLSLRESQKLFQNGKEREIQLEAQIKALETQIQALKVNEEQMIKKSRTTEMALESLKQQLVDLHHSESLQRAREQHESIVMGLTKKYEEQVLSLQKNLDATVTALKEQEDICSRLKDHVKQLERNQEAIKLEKTEIINKLTRSLEESQKQCAHLLQSGSVQEVAQLQFQLQQAQKAHAMSANMNKALQEELTELKDEISLYESAAKLGIHPSDSEGELNIELTESYVDLGIKKVNWKKSKVTSIVQEEDPNEELSKDEFILKLKAEVQRLLGSNSMKRHLVSQLQNDLKDCHKKIEDLHQVKKDEKSIEVETKTDTSEKPKNQLWPESSTSDVVRDDILLLKNEIQVLQQQNQELKETEGKLRNTNQDLCNQMRQMVQDFDHDKQEAVDRCERTYQQHHEAMKTQIRESLLAKHALEKQQLFEAYERTHLQLRSELDKLNKEVTAVQECYLEVCREKDNLELTLRKTTEKEQQTQEKIKEKLIQQLEKEWQSKLDQTIKAMKKKTLDCGSQTDQVTTSDVISKKEMAIMIEEQKCTIQQNLEQEKDIAIKGAMKKLEIELELKHCENITKQVEIAVQNAHQRWLGELPELAEYQALVKAEQKKWEEQHEVSVNKRISFAVSEAKEKWKSELENMRKNILPGKELEEKIHSLQKELELKNEEVPVVIRAELAKARSEWNKEKQEEIHRIQEQNEQDYRQFLDDHRNKINEVLAAAKEDFMKQKTELLLQKETELQTCLDQSRREWTMQEAKRIQLEIYQYEEDILTVLGVLLSDTQKEHISDSEDKQLLEIMSTCSSKWMSVQYFEKLKGCIQKAFQDTLPLLVENADPEWKKRNMAELSKDSASQGTGQGDPGPAAGHHAQPLALQATEAEAEENNKVVEELIEENNDMKNKLEELQTLCKTPPRSLSAGAIENACLPCSGGALEELRGQYIKAVKKIKCDMLRYIQESKERAAEMVKAEVLRERQETARKMRKYYLICLQQILQDDGKEGAEKKIMNAASKLATMAKLLETPISSKSQSKTTQSALPLTSEMLIAVKKSKRNDVNQKIPCCIESKSNSVNTITRTLCEQAPKRRAACNLQRLLENSEHQSIKHVGSKETHLEFQFGDGSCKHLNSLPRNVSPEFVPCEGEGGFGLHKKKDLLSDNGSESLPHSAAYPFLGTLGNKPSPRCTPGPSESGCMHITFRDSNERLGLKVYKCNPLMESENAASEKSQGLDVQEPPVKDGGDLSDCLGWPSSSATLSFDSREASFVHGRPQGTLEIPSESVKSKQFSPSGYLSDTEESNMICQTMKCQRYQTPYLSEETTYLEPGKISVNCGHPSRHKADRLKSDFKKLSSTLPSSVCQQPSRKLIVPLSSQQDSGFDSPFVNLD
partner: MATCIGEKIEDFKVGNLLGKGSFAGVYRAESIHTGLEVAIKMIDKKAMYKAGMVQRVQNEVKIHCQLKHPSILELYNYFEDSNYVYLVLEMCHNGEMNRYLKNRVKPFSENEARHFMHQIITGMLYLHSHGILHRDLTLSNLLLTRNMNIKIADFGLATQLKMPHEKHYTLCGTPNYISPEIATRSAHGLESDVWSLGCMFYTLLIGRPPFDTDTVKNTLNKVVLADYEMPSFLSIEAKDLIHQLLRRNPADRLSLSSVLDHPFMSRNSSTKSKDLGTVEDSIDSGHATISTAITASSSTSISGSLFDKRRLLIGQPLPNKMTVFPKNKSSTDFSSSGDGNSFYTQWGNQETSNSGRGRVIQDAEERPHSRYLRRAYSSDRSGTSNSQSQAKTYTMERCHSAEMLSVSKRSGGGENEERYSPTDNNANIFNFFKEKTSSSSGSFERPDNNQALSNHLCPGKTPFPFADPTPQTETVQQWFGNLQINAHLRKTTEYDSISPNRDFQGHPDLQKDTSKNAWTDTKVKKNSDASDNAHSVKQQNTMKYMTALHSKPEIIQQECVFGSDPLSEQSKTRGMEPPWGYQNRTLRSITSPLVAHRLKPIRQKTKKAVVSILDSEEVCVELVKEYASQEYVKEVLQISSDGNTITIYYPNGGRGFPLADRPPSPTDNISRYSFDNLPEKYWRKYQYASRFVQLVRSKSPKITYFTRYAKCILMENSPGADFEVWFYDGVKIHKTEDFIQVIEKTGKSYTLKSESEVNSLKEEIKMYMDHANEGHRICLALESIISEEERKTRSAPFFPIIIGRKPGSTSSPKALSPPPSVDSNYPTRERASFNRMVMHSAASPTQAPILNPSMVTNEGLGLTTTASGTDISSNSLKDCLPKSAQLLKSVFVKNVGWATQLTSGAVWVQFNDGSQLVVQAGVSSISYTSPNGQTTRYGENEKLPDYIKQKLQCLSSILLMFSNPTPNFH
B2: Serine/threonine-protein kinase PLK4 (Homo sapiens), O00444 (parent)
chain: B1 partner

Variants of: B1
Conditions: with plk4_human PLK4, O00444

Row | effect of a mutation on the interaction | Variant
1 | decreasing interaction strength | E21K
2 | decreasing interaction strength | V8A

Variants of: B2
Conditions: with CEP152, O94986-3

Row | effect of a mutation on the interaction | Variant
3 | decreasing interaction strength | K711A
4 | disrupting interaction strength | K685A
